# Laboratory results taken from patent US20230212587A1, “Mutant Hydroxyphenylpyruvate Dioxygenase Polypeptide, Encoding Gene Thereof and Use Therefor” (Beijing Dabeinong Biotechnology Co., Ltd., priority 2019, published 2023).
# B1: TaHPPD1m-F372A-02: Triticum aestivum ecotype 1 HPPD mutant F372A, SEQ ID NO: 180 (protein)
# chain: MMNAHANLALAALAFPAHMPNSKSSHIRSRRTRRPLLPLTMAAHPPIRTNIGMSTHGSASGGGEQAGISSTDRFRMIDFHHVEFWCADAASAAARFSFGLGVPLAAESGLSTGNTAHASHLLHSRSGSLALLFSAPYAQGDAVTASVPSFDADAARRFTADHGLAVRAMAVRVPDAGEAFRTSVDAGARPSFAPAELGHGFELAEVQLYGDVVLRFVSHPDDTAIPFLPGFGSVPSSGATPDYGLTRFDHIVGDVPHLAPVAAYIAGFTGFHEFSRFTADQVGTAESSLNVVVLANNSENVLLTVVEPVHGTKRRSQVQTYLDHHGGPGVQHLAMASNDVLGTLRKIRGRSTMGGFELLPPPPASYYDDVRRRAGDVLSEAQIKGCQELGVRVDKDDHGGVVLQIATKAAGDRPTLLLEFIQRIGCMDKDENGQEYQRGGCGGFGQGNVTELFKSIEDYEKSLDASARLAA
# modifications: TaHPPD1m-F372A Amino Acid Sequence
# B2: TaHPPD2-02: native HPPD of Triticum aestivum ecotype 2, UniProt Q45FE8, SEQ ID NO: 183 (protein, listed as Triticum aestivum)
# chain: MPPTPTTPAATGAGAAAAVTPEHARPRRMVRFNPRSDRFHTLSFHHVEFWCADAASAAGRFAFALGAPLAARSDLSTGNSVHASQLLRSGNLAFLFTAPYANGCDAATASLPSFSADAARRFSADHGLAVRSIALRVADAAEAFRASVDGGARPAFSPVDLGRGFGFAEVELYGDVVLRFVSHPDDTDVPFLPGFEGVSNPDAVDYGLTRFDHVVGNVPELAPAAAYVAGFAGFHEFAEFTTEDVGTAESGLNSMVLANNSEGVLLPLNEPVHGTKRRSQIQTFLEHHGGSGVQHIAVASSDVLRTLREMRARSAMGGFDFLPPRCRKYYEGVRRIAGDVLSEAQIKECQELGVLVDRDDQGVLLQIFTKPVGDRPTLFLEMIQRIGCMEKDERGEEYQKGGCGGFGKGNFSELFKSIEDYEKSLEAKQSAAVQGS
# modifications: TaHPPD2 Amino Acid Sequence
# System: Arabidopsis thaliana T1 plants
# Experiment: Topramezone tolerance of transgenic Arabidopsis thaliana T1 plants (pesticide damage grade by bleached leaf area, score, resistance evaluation)
# Assay type: in vivo
# Conditions: HPPDs from ecotypes of Triticum aestivum; for Classification and statistics of pesticide damage grade: Grade 0 / Classification and statistics of pesticide damage grade: Grade 1 / Classification and statistics of pesticide damage grade: Grade 2 / Classification and statistics of pesticide damage grade: Grade 3: number of plants
# Procedure, shortened: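 Herbicide tolerance was judged per plant on a bleaching scale (grade 0 no bleaching to grade 3 fully bleached) 7 DAT. Topramezone doses were 0, 25, 50 and 100 g ai/ha on 18-day-old T1 and wild-type plants.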
Molecule,Resistance evaluation (topramezone 25 g ai/ha (1x)),Scores (topramezone 25 g ai/ha (1x)),Classification and statistics of pesticide damage grade: Grade 0 (topramezone 25 g ai/ha (1x)),Classification and statistics of pesticide damage grade: Grade 1 (topramezone 25 g ai/ha (1x)),Classification and statistics of pesticide damage grade: Grade 2 (topramezone 25 g ai/ha (1x)),Classification and statistics of pesticide damage grade: Grade 3 (topramezone 25 g ai/ha (1x)),Resistance evaluation (topramezone 100 g ai/ha (4x)),Scores (topramezone 100 g ai/ha (4x)),Classification and statistics of pesticide damage grade: Grade 0 (topramezone 100 g ai/ha (4x)),Classification and statistics of pesticide damage grade: Grade 1 (topramezone 100 g ai/ha (4x)),Classification and statistics of pesticide damage grade: Grade 2 (topramezone 100 g ai/ha (4x)),Classification and statistics of pesticide damage grade: Grade 3 (topramezone 100 g ai/ha (4x))
B1,highly resistant (highly resistant plants (scores 0-15)),0,16,0,0,0,highly resistant (highly resistant plants (scores 0-15)),2,15,1,0,0
B2,non-resistant (non-resistant plants (scores 68-100)),100,0,0,0,16,non-resistant (non-resistant plants (scores 68-100)),100,0,0,0,16
